Tested on: Escherichia coli TOP10
Experiment: shrunken log2 fold change of peptide-encoding DNA abundance (4.5 h post-induction vs induction); higher = less antimicrobial activity (less host growth inhibition)
Details: time post-induction: 4.5 h; library: site-saturation at positions 5, 18, 19, 20
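Note: peptides expressed intracellularly from a pBAD plasmid library in pooled LB shake-flask culture, induced with 0.3% L-arabinose, DNA abundance read by NGS, three biological replicates, DESeq2 with apeglm shrinkage.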

RRIRVRPPRLPRPRPRPPVRPRP
shrunken log2 fold change: 0.267

RRIRHRPPRLPRPRPRPSTRPRP
shrunken log2 fold change: 0.0896

RRIRSRPPRLPRPRPRPMTVPRP
shrunken log2 fold change: -0.0124

RRIRFRPPRLPRPRPRPCMDPRP
shrunken log2 fold change: -0.336

RRIRFRPPRLPRPRPRPYGSPRP
shrunken log2 fold change: -0.182

RRIRQRPPRLPRPRPRPFPYPRP
shrunken log2 fold change: 0.0303

RRIRVRPPRLPRPRPRPLFLPRP
shrunken log2 fold change: -0.417

RRIRERPPRLPRPRPRPLDKPRP
shrunken log2 fold change: -0.114

RRIRGRPPRLPRPRPRPCGHPRP
shrunken log2 fold change: 0.666

RRIRNRPPRLPRPRPRPTEYPRP
shrunken log2 fold change: -0.203

RRIRARPPRLPRPRPRPHDYPRP
shrunken log2 fold change: 0.141

RRIRHRPPRLPRPRPRPDPIPRP
shrunken log2 fold change: 0.0172

RRIRTRPPRLPRPRPRPSAAPRP
shrunken log2 fold change: 0.186

RRIRIRPPRLPRPRPRPRGDPRP
shrunken log2 fold change: 0.389

RRIRIRPPRLPRPRPRPPHDPRP
shrunken log2 fold change: -0.0948

RRIRNRPPRLPRPRPRPWNIPRP
shrunken log2 fold change: -0.0117

RRIRHRPPRLPRPRPRPADKPRP
shrunken log2 fold change: -0.245

RRIRDRPPRLPRPRPRPITFPRP
shrunken log2 fold change: -0.822

RRIRSRPPRLPRPRPRPMSAPRP
shrunken log2 fold change: 0.202

RRIRCRPPRLPRPRPRPVPVPRP
shrunken log2 fold change: 0.0927

RRIRGRPPRLPRPRPRPPSVPRP
shrunken log2 fold change: 0.645

RRIRFRPPRLPRPRPRPRYEPRP
shrunken log2 fold change: -0.598

RRIRCRPPRLPRPRPRPILPPRP
shrunken log2 fold change: -0.287

RRIRYRPPRLPRPRPRPPRAPRP
shrunken log2 fold change: 0.403

RRIRVRPPRLPRPRPRPCAKPRP
shrunken log2 fold change: 0.128

RRIRIRPPRLPRPRPRPIQDPRP
shrunken log2 fold change: -0.205

RRIRPRPPRLPRPRPRPMMTPRP
shrunken log2 fold change: -0.146

RRIRIRPPRLPRPRPRPEWEPRP
shrunken log2 fold change: 0.068

RRIRMRPPRLPRPRPRPSGFPRP
shrunken log2 fold change: 0.411

RRIRPRPPRLPRPRPRPMNVPRP
shrunken log2 fold change: -0.0376

RRIRFRPPRLPRPRPRPRFNPRP
shrunken log2 fold change: -0.196

RRIRMRPPRLPRPRPRPTYKPRP
shrunken log2 fold change: -0.0666

RRIRLRPPRLPRPRPRPVNVPRP
shrunken log2 fold change: -0.00443

RRIRPRPPRLPRPRPRPCIEPRP
shrunken log2 fold change: -0.291

RRIRLRPPRLPRPRPRPRLDPRP
shrunken log2 fold change: 0.363

RRIRTRPPRLPRPRPRPKGQPRP
shrunken log2 fold change: 0.0118

RRIRHRPPRLPRPRPRPYRVPRP
shrunken log2 fold change: -0.0718

RRIRGRPPRLPRPRPRPQGYPRP
shrunken log2 fold change: 0.045

RRIRLRPPRLPRPRPRPPFEPRP
shrunken log2 fold change: 0.182

RRIRPRPPRLPRPRPRPGTWPRP
shrunken log2 fold change: 0.0893

RRIRSRPPRLPRPRPRPFYQPRP
shrunken log2 fold change: -0.308

RRIRIRPPRLPRPRPRPCYAPRP
shrunken log2 fold change: -0.68

RRIRLRPPRLPRPRPRPPCVPRP
shrunken log2 fold change: -0.0544

RRIRGRPPRLPRPRPRPEACPRP
shrunken log2 fold change: 1.11

RRIRSRPPRLPRPRPRPKYMPRP
shrunken log2 fold change: -0.677

RRIRCRPPRLPRPRPRPWCGPRP
shrunken log2 fold change: -0.288

RRIRKRPPRLPRPRPRPIGNPRP
shrunken log2 fold change: 0.0844

RRIRSRPPRLPRPRPRPKGIPRP
shrunken log2 fold change: -0.357

RRIRRRPPRLPRPRPRPNVKPRP
shrunken log2 fold change: 0.0575

RRIRQRPPRLPRPRPRPSQMPRP
shrunken log2 fold change: -0.0442

RRIRNRPPRLPRPRPRPWHPPRP
shrunken log2 fold change: -0.277

RRIRPRPPRLPRPRPRPVCLPRP
shrunken log2 fold change: 0.081

RRIRTRPPRLPRPRPRPITAPRP
shrunken log2 fold change: -0.0416

RRIRVRPPRLPRPRPRPVNEPRP
shrunken log2 fold change: 0.0839

RRIRNRPPRLPRPRPRPKMVPRP
shrunken log2 fold change: -0.13

RRIRVRPPRLPRPRPRPMMWPRP
shrunken log2 fold change: -0.368

RRIRGRPPRLPRPRPRPENRPRP
shrunken log2 fold change: 0.19

RRIRHRPPRLPRPRPRPYPKPRP
shrunken log2 fold change: -0.193

RRIRERPPRLPRPRPRPRMSPRP
shrunken log2 fold change: -0.254

RRIRGRPPRLPRPRPRPEANPRP
shrunken log2 fold change: 0.632

RRIRKRPPRLPRPRPRPKFFPRP
shrunken log2 fold change: 0.219

RRIRTRPPRLPRPRPRPCCVPRP
shrunken log2 fold change: -0.363

RRIRYRPPRLPRPRPRPSKQPRP
shrunken log2 fold change: -0.137

RRIRKRPPRLPRPRPRPRSRPRP
shrunken log2 fold change: 0.418

RRIRVRPPRLPRPRPRPRPSPRP
shrunken log2 fold change: 0.382

RRIRQRPPRLPRPRPRPPLCPRP
shrunken log2 fold change: 0.28

RRIRSRPPRLPRPRPRPNVQPRP
shrunken log2 fold change: -0.335

RRIRMRPPRLPRPRPRPWLPPRP
shrunken log2 fold change: -0.0332

RRIRCRPPRLPRPRPRPANIPRP
shrunken log2 fold change: -0.443

RRIRSRPPRLPRPRPRPMYHPRP
shrunken log2 fold change: -0.762

RRIRARPPRLPRPRPRPGADPRP
shrunken log2 fold change: 0.832

RRIRHRPPRLPRPRPRPNESPRP
shrunken log2 fold change: -0.506

RRIRSRPPRLPRPRPRPNFWPRP
shrunken log2 fold change: 0.0869

RRIRGRPPRLPRPRPRPAIFPRP
shrunken log2 fold change: 0.583

RRIRIRPPRLPRPRPRPCSLPRP
shrunken log2 fold change: -0.172

RRIRHRPPRLPRPRPRPHNMPRP
shrunken log2 fold change: -0.364

RRIRQRPPRLPRPRPRPFNKPRP
shrunken log2 fold change: -0.0963

RRIRWRPPRLPRPRPRPGEMPRP
shrunken log2 fold change: 0.0495

RRIRKRPPRLPRPRPRPNGWPRP
shrunken log2 fold change: 0.452

RRIRARPPRLPRPRPRPDADPRP
shrunken log2 fold change: 1.63

RRIRFRPPRLPRPRPRPMMWPRP
shrunken log2 fold change: -0.011

RRIRFRPPRLPRPRPRPTPWPRP
shrunken log2 fold change: 0.421

RRIRFRPPRLPRPRPRPVFMPRP
shrunken log2 fold change: -0.0805

RRIRYRPPRLPRPRPRPQWKPRP
shrunken log2 fold change: -0.01

RRIRMRPPRLPRPRPRPYNWPRP
shrunken log2 fold change: -0.337

RRIRPRPPRLPRPRPRPTGVPRP
shrunken log2 fold change: 0.0313

RRIRKRPPRLPRPRPRPYVKPRP
shrunken log2 fold change: -0.312

RRIRGRPPRLPRPRPRPVGCPRP
shrunken log2 fold change: 0.74

RRIRMRPPRLPRPRPRPTKHPRP
shrunken log2 fold change: 0.17

RRIRVRPPRLPRPRPRPVHCPRP
shrunken log2 fold change: -0.0781

RRIRFRPPRLPRPRPRPWMFPRP
shrunken log2 fold change: -0.451

RRIRFRPPRLPRPRPRPPQVPRP
shrunken log2 fold change: -0.00567

RRIRDRPPRLPRPRPRPTMRPRP
shrunken log2 fold change: 1.3

RRIRCRPPRLPRPRPRPFRLPRP
shrunken log2 fold change: -0.0979

RRIRFRPPRLPRPRPRPCRHPRP
shrunken log2 fold change: 0.0121

RRIRIRPPRLPRPRPRPAGIPRP
shrunken log2 fold change: -0.437

RRIRDRPPRLPRPRPRPIYEPRP
shrunken log2 fold change: 0.0032

RRIRSRPPRLPRPRPRPQWSPRP
shrunken log2 fold change: -0.176

RRIRKRPPRLPRPRPRPLWAPRP
shrunken log2 fold change: 0.452

RRIRDRPPRLPRPRPRPTGFPRP
shrunken log2 fold change: 0.0286

RRIRKRPPRLPRPRPRPCRNPRP
shrunken log2 fold change: -0.0611

RRIRYRPPRLPRPRPRPDEQPRP
shrunken log2 fold change: -0.00172

RRIRKRPPRLPRPRPRPQATPRP
shrunken log2 fold change: 0.0984

RRIRHRPPRLPRPRPRPCKPPRP
shrunken log2 fold change: -0.314

RRIRPRPPRLPRPRPRPRPMPRP
shrunken log2 fold change: 0.513

RRIRHRPPRLPRPRPRPPDDPRP
shrunken log2 fold change: 0.256

RRIRCRPPRLPRPRPRPMIHPRP
shrunken log2 fold change: -0.466

RRIRGRPPRLPRPRPRPIDNPRP
shrunken log2 fold change: 0.186

RRIRERPPRLPRPRPRPLWSPRP
shrunken log2 fold change: -0.125

RRIRERPPRLPRPRPRPFAVPRP
shrunken log2 fold change: -0.759

RRIRVRPPRLPRPRPRPLNYPRP
shrunken log2 fold change: -0.621

RRIRARPPRLPRPRPRPQLHPRP
shrunken log2 fold change: 0.054

RRIRLRPPRLPRPRPRPYWWPRP
shrunken log2 fold change: 0.0346

RRIRRRPPRLPRPRPRPDHIPRP
shrunken log2 fold change: 0.0664

RRIRFRPPRLPRPRPRPNQRPRP
shrunken log2 fold change: 0.269

RRIRPRPPRLPRPRPRPCAVPRP
shrunken log2 fold change: -0.418

RRIRMRPPRLPRPRPRPSIIPRP
shrunken log2 fold change: 0.0973

RRIRSRPPRLPRPRPRPLQAPRP
shrunken log2 fold change: 0.302

RRIRWRPPRLPRPRPRPCWMPRP
shrunken log2 fold change: 0.0693

RRIRCRPPRLPRPRPRPSGMPRP
shrunken log2 fold change: -0.35

RRIRKRPPRLPRPRPRPWMGPRP
shrunken log2 fold change: -0.0352

RRIRRRPPRLPRPRPRPQLMPRP
shrunken log2 fold change: 0.247

RRIRDRPPRLPRPRPRPNFVPRP
shrunken log2 fold change: -0.0655

RRIRERPPRLPRPRPRPSWMPRP
shrunken log2 fold change: -0.416

RRIRKRPPRLPRPRPRPNQQPRP
shrunken log2 fold change: 0.101
